In article PMC2901902:

How the values were obtained:
[1] = biological target: histone H3 acetylated at lysine 14 in C2C12 chromatin (mouse (endogenous in C2C12)) (UniProt P68433); experiment: re-ChIP
[2] = biological target: DPF3b PHD12 with Ala mutation of Glu315 or Asp335; experiment: ITC

Substance	fold reduction of co-occupancy (against wild type DPF3b) [1] [fold]	fold reduction in affinity (against wild type PHD12) [2] [fold]
EGFP-DPF3b D263A or F264A mutant	2 to 3	
histone H3 peptide acetylated at lysine 14 (residues 1–18) (from UniProt P68431 2-19)		80 to 250
